According to PMC11432006 (2024):

How the values were obtained:
GFP-BC2-tag [1] = molecular target: T1, GFP-BC2-tag; assay: SPR
T1 chain: PDRKAAVSHWQQ

GFP-BC2-tag [2] = molecular target: T1, GFP-BC2-tag; assay: SPR; 5 mM DTT (reduced)

B1: anti-BC2-tag VHH (BC2-Nb) (VHH)
VHH: QVQLVESGGGLVQPGGSLTLSCTASGFTLDHYDIGWFRQAPGKEREGVSCINNSDDDTYYADSVKGRFTIFMNNAKDTVYLQMNSLKPEDTAIYYCAEARGCKRGRYEYDFWGQGTQVTVSS
Kd (GFP-BC2-tag [1]): 9.28 nM | Kd (GFP-BC2-tag [2]): 55.2 nM
